Columns and labels:
[1] = biological target: EDI200 (human); assay: bridging ECL (biotin-EDI200/SulfoTag-EDI200) in NHP serum; plate NCO 129.4
[2] = biological target: EDI200 (human); assay: bridging ECL (biotin-EDI200/SulfoTag-EDI200) in NHP serum; Renzo-1 125 ng/mL
[3] = biological target: EDI200 (human); assay: bridging ECL (biotin-EDI200/SulfoTag-EDI200) in NHP serum; Renzo-1 250 ng/mL
[4] = biological target: EDI200 (human); assay: bridging ECL (biotin-EDI200/SulfoTag-EDI200) in NHP serum; Renzo-1 62.5 ng/mL
[5] = biological target: EDI200 (human); assay: bridging ECL (biotin-EDI200/SulfoTag-EDI200) in NHP serum; Renzo-1 7.81 ng/mL
[6] = biological target: EDI200 (human); assay: bridging ECL (biotin-EDI200/SulfoTag-EDI200) in NHP serum; Renzo-1 15.63 ng/mL
[7] = biological target: EDI200 (human); assay: bridging ECL (biotin-EDI200/SulfoTag-EDI200) in NHP serum; Renzo-1 31.25 ng/mL
[8] = biological target: EDI200 (human); assay: bridging ECL in NHP serum; Renzo-1 125 ng/mL with 1 µg/mL free EDI200 as competitor
[9] = biological target: EDI200 (human); assay: bridging ECL in NHP serum; Renzo-1 250 ng/mL with 1 µg/mL free EDI200 as competitor
[10] = biological target: EDI200 (human); assay: bridging ECL in NHP serum; Renzo-1 62.5 ng/mL with 1 µg/mL free EDI200 as competitor
[11] = biological target: EDI200 (human); assay: bridging ECL in NHP serum; Renzo-1 7.81 ng/mL with 1 µg/mL free EDI200 as competitor
[12] = biological target: EDI200 (human); assay: bridging ECL in NHP serum; Renzo-1 15.63 ng/mL with 1 µg/mL free EDI200 as competitor
[13] = biological target: EDI200 (human); assay: bridging ECL in NHP serum; Renzo-1 31.25 ng/mL with 1 µg/mL free EDI200 as competitor
[14] = biological target: EDI200 (human); assay: bridging ECL (biotin-EDI200/SulfoTag-EDI200) in NHP serum; Renzo-1 500 ng/mL; plate NCO 129.4
[15] = biological target: EDI200 (human); assay: bridging ECL in NHP serum; Renzo-1 500 ng/mL with 1 µg/mL free EDI200 as competitor; plate NCO 129.4
[16] = biological target: EDI200 (human); assay: bridging ECL in NHP serum; Renzo-1 125 ng/mL, signal with 1 µg/mL free EDI200 over signal without (Table 17)
[17] = biological target: EDI200 (human); assay: bridging ECL in NHP serum; Renzo-1 250 ng/mL, signal with 1 µg/mL free EDI200 over signal without (Table 17)
[18] = biological target: EDI200 (human); assay: bridging ECL in NHP serum; Renzo-1 500 ng/mL, signal with 1 µg/mL free EDI200 over signal without (Table 17)
[19] = biological target: EDI200 (human); assay: bridging ECL in NHP serum; Renzo-1 62.5 ng/mL, signal with 1 µg/mL free EDI200 over signal without (Table 17)
[20] = biological target: EDI200 (human); assay: bridging ECL in NHP serum; Renzo-1 7.81 ng/mL, signal with 1 µg/mL free EDI200 over signal without (Table 17)
[21] = biological target: EDI200 (human); assay: bridging ECL in NHP serum; Renzo-1 15.63 ng/mL, signal with 1 µg/mL free EDI200 over signal without (Table 17)
[22] = biological target: EDI200 (human); assay: bridging ECL in NHP serum; Renzo-1 31.25 ng/mL, signal with 1 µg/mL free EDI200 over signal without (Table 17)
[23] = biological target: hEDAR-mFc (human) (UniProt Q9UNE0); assay: sandwich ELISA: hEDAR-mFc coated, anti-human IgG (Fc) CH2-HRP detection; EDA-A1 25 ng/mL, batch 7
[24] = biological target: hEDAR-mFc (human) (UniProt Q9UNE0); assay: sandwich ELISA: hEDAR-mFc coated, anti-human IgG (Fc) CH2-HRP detection; EDA-A1 50 ng/mL, batch 7
[25] = biological target: hEDAR-mFc (human) (UniProt Q9UNE0); assay: sandwich ELISA: hEDAR-mFc coated, anti-human IgG (Fc) CH2-HRP detection; EDA-A1 100 ng/mL, batch 5
[26] = biological target: hEDAR-mFc (human) (UniProt Q9UNE0); assay: sandwich ELISA: hEDAR-mFc coated, anti-human IgG (Fc) CH2-HRP detection; EDA-A1 100 ng/mL, batch 7
[27] = biological target: hEDAR-mFc (human) (UniProt Q9UNE0); assay: sandwich ELISA: hEDAR-mFc coated, anti-human IgG (Fc) CH2-HRP detection; EDA-A1 12.5 ng/mL, batch 7
[28] = biological target: hEDAR-mFc (human) (UniProt Q9UNE0); assay: sandwich ELISA: hEDAR-mFc coated, anti-human IgG (Fc) CH2-HRP detection; EDA-A1 3.13 ng/mL, batch 7
[29] = biological target: hEDAR-mFc (human) (UniProt Q9UNE0); assay: sandwich ELISA: hEDAR-mFc coated, anti-human IgG (Fc) CH2-HRP detection; EDA-A1 6.25 ng/mL, batch 7
[30] = biological target: hEDAR-mFc (human) (UniProt Q9UNE0); assay: sandwich ELISA: hEDAR-mFc coated, anti-human IgG (Fc) CH2-HRP detection; EDA-A1 with hFc, nominal 25 ng/mL, batch 7
[31] = biological target: hEDAR-mFc (human) (UniProt Q9UNE0); assay: sandwich ELISA: hEDAR-mFc coated, anti-human IgG (Fc) CH2-HRP detection; EDA-A1 with hFc, nominal 50 ng/mL, batch 7
[32] = biological target: hEDAR-mFc (human) (UniProt Q9UNE0); assay: sandwich ELISA: hEDAR-mFc coated, anti-human IgG (Fc) CH2-HRP detection; EDA-A1 with hFc, nominal 100 ng/mL, batch 7
[33] = biological target: hEDAR-mFc (human) (UniProt Q9UNE0); assay: sandwich ELISA: hEDAR-mFc coated, anti-human IgG (Fc) CH2-HRP detection; EDA-A1 100 ng/mL with hFc 100 ng/mL, batch 5
[34] = biological target: hEDAR-mFc (human) (UniProt Q9UNE0); assay: sandwich ELISA: hEDAR-mFc coated, anti-human IgG (Fc) CH2-HRP detection; EDA-A1 with hFc, nominal 12.5 ng/mL, batch 7
[35] = biological target: hEDAR-mFc (human) (UniProt Q9UNE0); assay: sandwich ELISA: hEDAR-mFc coated, anti-human IgG (Fc) CH2-HRP detection; EDA-A1 with hFc, nominal 3.13 ng/mL, batch 7
[36] = biological target: hEDAR-mFc (human) (UniProt Q9UNE0); assay: sandwich ELISA: hEDAR-mFc coated, anti-human IgG (Fc) CH2-HRP detection; EDA-A1 with hFc, nominal 6.25 ng/mL, batch 7
[37] = biological target: EDI200 (human); assay: bridging ECL in NHP serum; antibody 125 ng/mL with 1 µg/mL free EDI200
[38] = biological target: EDI200 (human); assay: bridging ECL in NHP serum; antibody 250 ng/mL with 1 µg/mL free EDI200
[39] = biological target: EDI200 (human); assay: bridging ECL in NHP serum; antibody 500 ng/mL with 1 µg/mL free EDI200
[40] = biological target: EDI200 (human); assay: bridging ECL in NHP serum; antibody 62.5 ng/mL with 1 µg/mL free EDI200
[41] = biological target: EDI200 (human); assay: bridging ECL in NHP serum; antibody 7.81 ng/mL with 1 µg/mL free EDI200
[42] = biological target: EDI200 (human); assay: bridging ECL in NHP serum; antibody 15.63 ng/mL with 1 µg/mL free EDI200
[43] = biological target: EDI200 (human); assay: bridging ECL in NHP serum; antibody 31.25 ng/mL with 1 µg/mL free EDI200
[44] = biological target: EDI200 (human); assay: bridging ECL (biotin-EDI200/SulfoTag-EDI200) in NHP serum; antibody 125 ng/mL
[45] = biological target: EDI200 (human); assay: bridging ECL (biotin-EDI200/SulfoTag-EDI200) in NHP serum; antibody 250 ng/mL
[46] = biological target: EDI200 (human); assay: bridging ECL (biotin-EDI200/SulfoTag-EDI200) in NHP serum; antibody 62.5 ng/mL
[47] = biological target: EDI200 (human); assay: bridging ECL (biotin-EDI200/SulfoTag-EDI200) in NHP serum; antibody 7.81 ng/mL
[48] = biological target: EDI200 (human); assay: bridging ECL (biotin-EDI200/SulfoTag-EDI200) in NHP serum; antibody 15.63 ng/mL
[49] = biological target: EDI200 (human); assay: bridging ECL (biotin-EDI200/SulfoTag-EDI200) in NHP serum; antibody 31.25 ng/mL
[50] = biological target: EDI200 (human); assay: bridging ECL (biotin-EDI200/SulfoTag-EDI200) in NHP serum; antibody 500 ng/mL; plate NCO 129.4
[51] = biological target: EDI200 (human); assay: bridging ECL in NHP serum; antibody 125 ng/mL, signal with 1 µg/mL free EDI200 over signal without
[52] = biological target: EDI200 (human); assay: bridging ECL in NHP serum; antibody 250 ng/mL, signal with 1 µg/mL free EDI200 over signal without
[53] = biological target: EDI200 (human); assay: bridging ECL in NHP serum; antibody 500 ng/mL, signal with 1 µg/mL free EDI200 over signal without
[54] = biological target: EDI200 (human); assay: bridging ECL in NHP serum; antibody 62.5 ng/mL, signal with 1 µg/mL free EDI200 over signal without
[55] = biological target: EDI200 (human); assay: bridging ECL in NHP serum; antibody 7.81 ng/mL, signal with 1 µg/mL free EDI200 over signal without
[56] = biological target: EDI200 (human); assay: bridging ECL in NHP serum; antibody 15.63 ng/mL, signal with 1 µg/mL free EDI200 over signal without
[57] = biological target: EDI200 (human); assay: bridging ECL in NHP serum; antibody 31.25 ng/mL, signal with 1 µg/mL free EDI200 over signal without

Mouse monoclonal (Renzo-1) to EDA (antibody)
sensitivity (lowest antibody concentration with mean signal above the plate NCO) [1]: 62.5 ng/mL
Mean Signal [2]: 306 signal (ECL)
Mean Signal [3]: 495 signal (ECL)
Mean Signal [4]: 176 signal (ECL)
Mean Signal [5]: 89 signal (ECL)
Mean Signal [6]: 102 signal (ECL)
Mean Signal [7]: 129 signal (ECL)
Mean Signal [8]: 85 signal (ECL)
Mean Signal [9]: 89 signal (ECL)
Mean Signal [10]: 75 signal (ECL)
Mean Signal [11]: 81 signal (ECL)
Mean Signal [12]: 78 signal (ECL)
Mean Signal [13]: 80 signal (ECL)
Mean Signal [14]: 949 signal (ECL)
Mean Signal [15]: 171 signal (ECL)
Drug/Non-drug Ratio [16]: 0.28
Drug/Non-drug Ratio [17]: 0.18
Drug/Non-drug Ratio [18]: 0.18
Drug/Non-drug Ratio [19]: 0.43
Drug/Non-drug Ratio [20]: 0.91
Drug/Non-drug Ratio [21]: 0.77
Drug/Non-drug Ratio [22]: 0.62

Recombinant human Ectodysplasin A1 (from UniProt Q92838 160-391) (ligand)
Mean OD [23]: 0.18 OD
Mean OD [24]: 0.234 OD
Mean Conc. (read as EDI200 from the standard curve) [25]: 5.43 ng/mL
Mean OD [25]: 0.292 OD
Mean Conc. (read as EDI200 from the standard curve) [26]: 6.14 ng/mL
Mean OD [26]: 0.316 OD
Mean OD [27]: 0.14 OD
Mean OD [28]: 0.116 OD
Mean OD [29]: 0.119 OD
Mean OD [30]: 0.18 OD
Mean OD [31]: 0.214 OD
Mean Conc. (read as EDI200 from the standard curve) [32]: 4.77 ng/mL
Mean OD [32]: 0.275 OD
Mean Conc. (read as EDI200 from the standard curve) [33]: 5.34 ng/mL
Mean OD [33]: 0.289 OD
Mean OD [34]: 0.15 OD
Mean OD [35]: 0.121 OD
Mean OD [36]: 0.125 OD

mouse anti-human CD106 IgG1 antibody
Mean Signal [37]: 76 signal (ECL)
Mean Signal [38]: 80 signal (ECL)
Mean Signal [39]: 81 signal (ECL)
Mean Signal [40]: 76 signal (ECL)
Mean Signal [41]: 80 signal (ECL)
Mean Signal [42]: 74 signal (ECL)
Mean Signal [43]: 76 signal (ECL)
Mean Signal [44]: 82 signal (ECL)
Mean Signal [45]: 83 signal (ECL)
Mean Signal [46]: 81 signal (ECL)
Mean Signal [47]: 85 signal (ECL)
Mean Signal [48]: 81 signal (ECL)
Mean Signal [49]: 81 signal (ECL)
Mean Signal [50]: 86 signal (ECL)
Drug/Non-drug Ratio [51]: 0.93
Drug/Non-drug Ratio [52]: 0.96
Drug/Non-drug Ratio [53]: 0.95
Drug/Non-drug Ratio [54]: 0.94
Drug/Non-drug Ratio [55]: 0.93
Drug/Non-drug Ratio [56]: 0.91
Drug/Non-drug Ratio [57]: 0.93

From patent US20160272694A1
